1 substance from paper PMC5599369 can be followed below.

Bounds are passed on as bounds.

The assay deals with gramicidin A (Bacillus brevis). In words: single-channel electrophysiology.

Regarding gramicidin A (peptide), the channel (dimer) lifetime was below 3 ms.
